T1: human extracellular domain of TLT-1-Fc tagged protein (sTLT-1-Fc) (UniProt Q86YW5 16-162)
T1 chain: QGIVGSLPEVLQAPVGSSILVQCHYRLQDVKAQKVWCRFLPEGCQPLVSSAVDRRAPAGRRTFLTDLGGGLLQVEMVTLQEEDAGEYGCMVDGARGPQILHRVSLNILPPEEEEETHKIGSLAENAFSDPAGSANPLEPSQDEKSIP

T2: human extracellular domain of TLT-1-Fc tagged protein (sTLT-1-Fc) (human, UniProt Q86YW5 16-162)
T2 construct: also called SILT-1-Fc; extracellular domain of human TLT-1; not shown: Fc tag
T2 sequence: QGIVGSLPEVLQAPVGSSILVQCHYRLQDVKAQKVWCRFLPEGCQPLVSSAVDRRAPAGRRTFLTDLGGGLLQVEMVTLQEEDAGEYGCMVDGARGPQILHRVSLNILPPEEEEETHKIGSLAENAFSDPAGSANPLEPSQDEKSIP

T3: mouse TLT-1 on activated mouse platelets (mouse, UniProt Q8K558 21-317)
T3 construct: whole, on cells
T3 sequence (looked up): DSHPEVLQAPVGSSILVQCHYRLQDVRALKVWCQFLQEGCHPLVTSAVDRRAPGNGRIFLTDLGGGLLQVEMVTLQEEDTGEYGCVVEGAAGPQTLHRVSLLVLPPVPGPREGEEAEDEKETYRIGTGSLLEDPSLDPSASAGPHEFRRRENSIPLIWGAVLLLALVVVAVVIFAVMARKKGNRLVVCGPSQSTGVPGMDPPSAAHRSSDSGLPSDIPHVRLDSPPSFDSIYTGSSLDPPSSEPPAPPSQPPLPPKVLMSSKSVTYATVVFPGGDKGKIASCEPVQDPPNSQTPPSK

B1: sdAb 2-33TLT-His (VHH)
VHH: QVQLVESGGGLVQPGGSLTLSCAASGSIANIGGMAWYRRLPGNKRAMVASITSAGTASSYIDSVKGRFTISRDNAKNTVYLQMTSLKPEDTAVYLCKAWDRDLVDYWGQGIQVTVSS
notes: also called sdAb-2-33-His
B2: sdAb 2-90TLT-His (VHH)
VHH: QVQLVESGGGLVQAGGSLTLSCAASGSTSGINVMAWYRQAPGKQRELVANKARGGLPKYADFAKGRFTISRDNTKNTISLQMNSLKPEDTAVYYCNALLDWRLGDYWGQGTQVTVSS
notes: also called sdAb-2-90-His
B3: sTF209-PC1-sdAb 2-33TLT-His (other)
chain: MASMSGTTNTVAAYNLTWKSTNFKTILEWEPKPVNQVYTVQISTKSGDWKSKCFYTTDTECDLTDEIVKDVKQTYLARVFSYPAGNVESTGSAGEPLYENSPEFTPYLETNLGQPTIQSFEQVGTKVNVTVEDERTLVRRNNTFLSLRDVFGKDLIYTLYYWKSSSSGKKTAKTNTNEFLIDVDKGENYCFSVQAVIPSRTVNRKSTDSPVECGSGGGTGGGSGGSGGGTGGGSGAIEPRSFSQNQVQLVESGGGLVQPGGSLTLSCAASGSIANIGGMAWYRRLPGNKRAMVASITSAGTASSYIDSVKGRFTISRDNAKNTVYLQMTSLKPEDTAVYLCKAWDRDLVDYWGQGIQVTVSSHHHHHH
notes: the entry also holds vector-derived N-terminal residues; also called sTF209-PC1-dAb 2-33TLT-His; sTF209-sdAb 2-33TLT-His
B4: sTF209-PC1-sdAb 2-90TLT-His (other)
chain: MASMSGTTNTVAAYNLTWKSTNFKTILEWEPKPVNQVYTVQISTKSGDWKSKCFYTTDTECDLTDEIVKDVKQTYLARVFSYPAGNVESTGSAGEPLYENSPEFTPYLETNLGQPTIQSFEQVGTKVNVTVEDERTLVRRNNTFLSLRDVFGKDLIYTLYYWKSSSSGKKTAKTNTNEFLIDVDKGENYCFSVQAVIPSRTVNRKSTDSPVECGSGGGTGGGSGGSGGGTGGGSGAIEPRSFSQNQVQLVESGGGLVQAGGSLTLSCAASGSTSGINVMAWYRQAPGKQRELVANKARGGLPKYADFAKGRFTISRDNTKNTISLQMNSLKPEDTAVYYCNALLDWRLGDYWGQGTQVTVSSHHHHHH
notes: the entry also holds vector-derived N-terminal residues

Legend:
[1] = target: T1, human extracellular domain of TLT-1-Fc …; experiment: ELISA
[2] = target: T2, human extracellular domain of TLT-1-Fc …; experiment: ELISA, human TLT-1 extracellular domain coated, anti-His-HRP detection, Kd fitted from OD450
Description: The extracellular domain of human TLT-1 protein was coated onto a 96-well plate for ELISA. After 24 hours incubation at 4° C. and 2 hours of blocking at room temperature (RT) with the blocking buffer, increasing concentrations of ten anti-TLT-1 sdAbs, sTF₂₀₉-PC1sdAb 2-33TLT-His and sTF₂₀₉-PC2sdAb 2-90TLT-His proteins were added to the respective wells for 1-hour incubation at RT. Anti-His tag—HRP-labeled antibody was used to evaluate the binding.
The binding of sdAb 2-33TLT-His, sdAb 2-132TLT-His, sdAb 2-25TLT-His, sdAb 2-64 TLT-His, sdAb 2-90TLT-His, sdAb 2-127TLT-His, sdAb 2-2 TLT-His, sdAb 3-32TLTcur-His; sdAb 3-38TLT-His and sdAb 2-69TLT-His, sTF₂₀₉-PC1-sdAb 2-33TT-His and s TF₂₀₉-PC1-sdAb 2-90TLT-His proteins to the human extracellular domain of TLT-1-Fc tagged protein (sTLT-1-Fc) was analyzed using ELISA, sTLT-1-Fc (3 μg/ml) was immobilized onto a 96-well plate for 24 hours at 4° C. and each well immobilized with SILT-1-Fc was blocked with 2% BSA PBST (PBS plus 0.1% Tween 20) for 2 hours at room temperature (RT). Serial dilution (1000 nM to 0.001 nM) of TLT-sdAbs and sTF-sdAb fusion proteins was performed and diluted proteins were then added to the coated 96-well platelet and incubated for 1 hour. After 3 times of washing with PBST, anti-His HRP antibody was added and incubated for 1 hour at RT. The plate was then washed for 3 times to remove the excess HRP conjugate and 100 μL TMB substrate was then added and incubated for 10-15 mins. To stop the reaction of color development, 2M sulfuric acid was added to the well.

[3] = target: T1, human extracellular domain of TLT-1-Fc …; experiment: ELISA
[4] = target: T3, mouse TLT-1 on activated mouse platelets; experiment: flow cytometry, collagen-activated mouse platelets in whole blood, FITC anti-His detection
Description: To prepare activated human platelets, ADP (5 and 20 μM) were preincubated with human whole blood and the above proteins were then added to the ADP-treated whole blood. To prepare activated mouse platelets, collagen, at either 5 μg/ml or 10 μg/ml, was preincubated with mouse whole blood and the above proteins were then added to the […] whole blood. The binding of the proteins with platelets was detected with FITC-labeled—anti-His tag antibody.
The binding capability of sdAb 2-33TLT-His, sdAb sTF₂₀₉-PC1-sdAb 2-33TLT-His and sTF₂₀₉-PC1-sdAb 2-90TLT-His proteins to both human and mouse resting and activated platelets was tested by FACS assay. Citrated human (3 donors) and mouse (12 mice) whole blood were collected at room temperature (RT) and 10 μL of whole blood was used for each sample. To activate human platelets, ADP (5 and 20 μM) was used, and incubated with whole blood for 10 min at room temperature (RT). To activate mouse platelet, Type I fibrillary collagen (5 and 10 ug/ml) was used and incubated with whole blood for 10 min at room temperature (RT). […] After incubation for 30 min at room temperature, all samples were fixed with 500 μL of 5% paraformaldehyde for 10 min at RT and. analyzed by FACS (LSR II, Beckon Dickinson, San Jose, Calif.).

[5] = target: T1, human extracellular domain of TLT-1-Fc …; experiment: ELISA; second row printed 2-33; plot key shows sdAb 2-90TLT-His

Binder | Kd [1] | Kd [2] | Kd [3] | binding result [4] | Kd [5]
B1 | 4.47 nM | < 10 nM | 2.74 nM |  | 
B2 |  | < 10 nM | 2.39 nM | binds | 2.67 nM
B3 | 2.28 nM | < 10 nM |  |  | 
B4 | 1.19 nM | < 10 nM |  | binds | 
